In the nanobody polyreactivity screen of Harvey et al. (2022):

experiment: yeast display, Sf9 membrane polyspecificity reagent, FACS + sequencing; frameworks hold sequencing errors
In short: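 Synthetic nanobody libraries on Saccharomyces cerevisiae BJ5465 were galactose-induced for 36–48 hours, stained 1 hour at 4 °C with 10% biotinylated, detergent-solubilized Sf9 membrane reagent and enriched on streptavidin microbeads. FACS then separated cells into low and high (top ~1%) gates by anti-HA (expression) and streptavidin (reagent binding) fluorescence. Genes were colony-PCR amplified, MiSeq 2 × 250 sequenced and CDR-length filtered. A clone's polyreactivity label is that of its gate of origin.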

Row | Sequence | polyreactivity (PSR sort gate)
1 | QVQLVESGGGLVQAGGSLRLSCAASGSTLDVYAMGWYRQAPGKERELVAAISWSVGSTYYADSVKGRFKISRDNAKNTVYLQMNSLKPEDTAVYYCAAEPYEYAYYGYDYWGQGTQVTVSS | high polyreactivity
2 | QVQLVESGGGLVQAGGSLRLSCAASGSTLDVYDMGWYRQAPGKEREFVATISFSVGSTDYADSVKGRFTISRDNAKNTVYLQMNSLKPEDTAVYYCAADVSEWSNQYFDSYLRMDYWGQGTQVTVSS | low polyreactivity
3 | QVQLVESGGGLVQAGGSLRLSCAASGSTLESYAMGWYRQAAGKERELVAAISKSGGRTYYADSVKGRFTISRDNAKNTVYLQMNSLKPEDTAVYYCAADSCTHLTYYWGQGTQVTVSS | high polyreactivity
4 | QVQLVESGGGLVQAGGSLRLSCAASGSTLFAYAMGWYRQAPGKERELVAAITSGASTNCADSVKGRFTISRDNAKNTVYLQMNSLKPEDTAVYYCAKDVSGTNPDYDYWGQGTQVTVSS | low polyreactivity
5 | QVQLVESGGGLVQAGGSLRLSCAASGSTLFGYAMGWYRQAPGKEREFVAAISRSGGRTYYADSVKGRFTISRDNAKNTVYLQMNSLKPEDTAVYYCATVRRRLSLTYDYWGQGTQVTVSS | high polyreactivity
6 | QVQLVESGGGLVQAGGSLRLSCAASGSTLFLYAMGWYRQAPGKERELVAAITWSGGSTYYADSVKGRFTISRDNAKNTVYLQMNSLKPEDTAVYYCAKYGRYFWNSGVDYWGQGTQVTVSS | high polyreactivity
7 | QVQLVESGGGLVQAGGSLRLSCAASGSTLFTYAMGWYRQAPGKERELVAAITSSGSTYYADSVKGRFTISRDNAKNTVYLQMNSLKPEDTAVYYCAVPGYRYTKYYYWGQGTQVTVSS | low polyreactivity
8 | QVQLVESGGGLVQAGGSLRLSCAASGSTLGAYAMGWYRQAPGKERELVAAITYSTGSTYYADSVKGRFTISRDNAKNTVYLQMNSLKPEDTAVYYCAAATYQSRYFQRFDCWGQGTQVTVSS | high polyreactivity
9 | QVQLVESGGGLVQAGGSLRLSCAASGSTLGGYAMGWYRQAPGKERELVASISWDDVRTYYADSVKGRFTISRDNAKNTVYLQMNSLKPEDTAVYYCAKGDIEYFWSRIYGYWGQGTQVTVSS | low polyreactivity
10 | QVQLVESGGGLVQAGGSLRLSCAASGSTLGRNAMGWDRQAPGKEREFVAAITYSTGSTYYADSVKGRFTISRDNAKNTVYVQMNSLKPEDTAVYYCAKGRLTRGYVTFEYWGQGTQVTGSS | high polyreactivity
11 | QVQLVESGGGLVQAGGSLRLSCAASGSTLGYNAMGCYRQAPGKERELVAAIRGGDDDTYYADSVKGRFTISRDNAKNTVYLQMNSMNPEDTAVYYCATGDTSIPYSPPGGYDSWGQGTQVTVSS | low polyreactivity
12 | QVQLVESGGGLVQAGGSLRLSCAASGSTLGYYAMGWYRQAPGKERELVAAISKGGGSTYYADSVKGRFTISRDNAKNTVYLQMNSLKPEETAVYYCAAYSTSWSRYDYWGQGTQVTVSS | high polyreactivity
13 | QVQLVESGGGLVQAGGSLRLSCAASGSTLHYYAMGWYRQAPGKERELVAAISATGGSTYYADSVKGRFTISRDNAKNTVYLQMNSLKPEDTAVYYCARTYRSHWVYTRLDYWGQGTQVTVSS | high polyreactivity
14 | QVQLVESGGGLVQAGGSLRLSCAASGSTLIANAMGWYRQAPGKERELVAGITYRGGDITTYADSVKGRFTISRDNAKNTVYLQKTSLKPEDTAVYYCAARVVWPTWARGGYWGQGTQVTVSS | low polyreactivity
15 | QVQLVESGGGLVQAGGSLRLSCAASGSTLKRYAMGWYRQAPGKERELVARISRIGGSTFYADSVKGRFTISRDNAKNTVYLQMNSLNPEDTAVYYCAAVPLHYVYRADQAYYRYNYWGQGTQVTVSS | high polyreactivity
16 | QVQLVESGGGLVQAGGSLRLSCAASGSTLKYNAMGWYRQAPGKEREFVASITLSAGRTYYADSVKGRFTISRDNAKNTVYLQMNSLKPEDTAVYYCAARRYFSYRYDYWGQGTQVTVSS | high polyreactivity
17 | QVQLVESGGGLVQAGGSLRLSCAASGSTLKYYAMGRYRQAPGKEMELVAAIRNLGGRTYYADSVKGRFTISRDNAKNTVYLQMNSLKPEDTAVYYCAAQFQSTAVGRDNYWGQGTQVTVSS | high polyreactivity
18 | QVQLVESGGGLVQAGGSLRLSCAASGSTLLANAMGWYRQAPGKERELVATITNSGGGTYYADSVKGRFTISRDNAKNTVYLQMNSLKPEDTAVYYCAAVYTGRSQYSKWRYEYWGQGTQVTVSS | low polyreactivity
19 | QVQLVESGGGLVQAGGSLRLSCAASGSTLLYYAMGWYRQAPGKERELVAAINKSGGRTYYADSVKGRFTISRDNAKNTVYLQMNSLKPEDTAVYYCAVDISVTGSSNRYGYWGQGTQVTVSS | high polyreactivity
20 | QVQLVESGGGLVQAGGSLRLSCAASGSTLNRNVMGSYRQAPGKERELVAVITYGVGSTYYADSVKGRFTISRDNAKNTVYLQLNSLKPEDTAVYYCNKDPLVFDYWGQGTQVTVSS | low polyreactivity
21 | QVQLVESGGGLVQAGGSLRLSCAASGSTLNRYAMGWYRQAPGKERELVAAISISGGRTYYADSVKGRFTISRDNAKNTVYLQMNSLKPEDTAVYYCADGNYLYSYGYGYWGQGTQVTVSS | high polyreactivity
22 | QVQLVESGGGLVQAGGSLRLSCAASGSTLQVNAMGWYRQAPGKETELVATISFSGGSTYYADSVKGRFTISRDNAMNTVYLQMNSLKPEETAAYYCNADSFVSWYNQFWYQATYDYWGQGTKVTVSS | low polyreactivity
23 | QVQLVESGGGLVQAGGSLRLSCAASGSTLRAYAMGWYRQAPGKDRELVAAISGRGGRTYYADSVKGRFTISRDNAKNTVYLQMNSLKPEDTAVYYCATRYREPYVWPYDYWGRGTQVTVSS | high polyreactivity
24 | QVQLVESGGGLVQAGGSLRLSCAASGSTLRGNAMGWYRQAPGKEREFVAAISSSGGRTYYADSVKGRFTISRDNAKNTVYLQMNSLKPEDTAVYYCNADPYNYSRRYRLRKYGYWGQGTQVTVSS | high polyreactivity
25 | QVQLVESGGGLVQAGGSLRLSCAASGSTLRHNVMGWYRQAPGKERELVAAITFSGGSTTYADSVKGRFTISRDNAKNTVYLQMNSLKPEDTAVYYCNAVYAGAGSFHPGYGYWGQGTQVTVSS | low polyreactivity
26 | QVQLVESGGGLVQAGGSLRLSCAASGSTLRRYAMGWYRQAPGKERELVAAITYRSGSTYYADSVKGRFTISRDNAKNTVYLQMNSLKPEDTAVYYCAKVGYVSKYWFAGDYWGQGTQVTVSS | high polyreactivity
27 | QVQLVESGGGLVQAGGSLRLSCAASGSTLRSYVMGWYRQAPGKERELVAAISIRGDSTYYADSVKGRFTISRDNAKNTVYLQMNSLKPEDTAVYYCAAASNRYPNSWYYYWGQGTQVTVSS | high polyreactivity
28 | QVQLVESGGGLVQAGGSLRLSCAASGSTLRYYAMGWYRQAPGKEREWVAAISTGGSTYYADSVKGRFTISRDNAKKTVYLQMHSLKPEDTAVYYCAAEPWANTPGEAGSPFDYWGQGTQVTVSS | low polyreactivity
29 | QVQLVESGGGLVQAGGSLRLSCAASGSTLSDNAMGWYRQAPGKERELVASISWSGGTYYADSVKGRFTISRDNAKNTVYLQMNSLKPEDTAVYYCAAYIYYNYSRQYWFDYWGQGTQVTVSS | low polyreactivity
30 | QVQLVESGGGLVQAGGSLRLSCAASGSTLSEYAMGWYRQAPGKERELVAAISWSGGSTYYADSVKGRFTISRDNAKNTVYLQMNSLKPEDTAVYDCAAKRYSSKRGLDYWGQGTHVTVSS | high polyreactivity
